The target in data set [1] is T1, TDP-43 RRM1-2 (UniProt Q13148 96-267). The experiment in a line: pull-down; Anisotropy: 50 mM Tris, 100 mM NaCl, pH 8.0, 10 C, 0.1 uM probe, 0-30 uM protein (RNasin for RNA); pull-down: same buffer on Ni resin, room temperature, 1 h, eluted with 1 M NaCl. The settings on record: protein: recombinant; tags: N-term His6 + thrombin site + GSSGSSG linker; His removed by thrombin for anisotropy, kept for pull-down.

The target in data set [2] is T2, TDP-43 RRM1 (UniProt Q13148 96-185). The description is as above. Particulars: protein: recombinant; tags: N-term His6 + thrombin site + GSSGSSG linker; His removed by thrombin for anisotropy, kept for pull-down.
Data set [3] addresses T3, TDP-43 RRM2 (UniProt Q13148 186-267). The data set is described as above. The settings on record: protein: recombinant; tags: N-term His6 + thrombin site + GSSGSSG linker; His removed by thrombin for anisotropy, kept for pull-down.
For data set [4], the target named is T1, TDP-43 RRM1-2. The experiment in a line: fluorescence anisotropy; Anisotropy: 50 mM Tris, 100 mM NaCl, pH 8.0, 10 C, 0.1 uM probe, 0-30 uM protein (RNasin for RNA); pull-down: same buffer on Ni resin, room temperature, 1 h, eluted with 1 M NaCl. The settings on record: protein: recombinant; tags: N-term His6 + thrombin site + GSSGSSG linker; His removed by thrombin for anisotropy, kept for pull-down; label: 5'-fluorescein.

For data set [5], the target named is T2, TDP-43 RRM1. The description is as above. The settings on record: protein: recombinant; tags: N-term His6 + thrombin site + GSSGSSG linker; His removed by thrombin for anisotropy, kept for pull-down; label: 5'-fluorescein.
The target in data set [6] is T3, TDP-43 RRM2. The description is as above. The settings on record: protein: recombinant; tags: N-term His6 + thrombin site + GSSGSSG linker; His removed by thrombin for anisotropy, kept for pull-down; label: 5'-fluorescein.
Data set [7] deals with T1, TDP-43 RRM1-2. The experiment in a line: fluorescence anisotropy; RNasin; Anisotropy: 50 mM Tris, 100 mM NaCl, pH 8.0, 10 C, 0.1 uM probe, 0-30 uM protein (RNasin for RNA); pull-down: same buffer on Ni resin, room temperature, 1 h, eluted with 1 M NaCl. The settings on record: protein: recombinant; tags: N-term His6 + thrombin site + GSSGSSG linker; His removed by thrombin for anisotropy, kept for pull-down; label: 5'-fluorescein. A general note: Polarisation of emitted light reports the rotation of a fluorescent probe.

For data set [8], the target named is T2, TDP-43 RRM1. The data set is described as above. Particulars: protein: recombinant; tags: N-term His6 + thrombin site + GSSGSSG linker; His removed by thrombin for anisotropy, kept for pull-down; label: 5'-fluorescein.
Data set [9] has as its target T3, TDP-43 RRM2. The data set is described as above. Particulars: protein: recombinant; tags: N-term His6 + thrombin site + GSSGSSG linker; His removed by thrombin for anisotropy, kept for pull-down; label: 5'-fluorescein.

This is an account of results in PMC4738331, “A molecular mechanism realizing sequence-specific recognition of nucleic acids by TDP-43”.

A word on the Kd: it is the free concentration of one partner at which half of the binding sites on the other are occupied at equilibrium, for simple one-to-one binding.

T2 sequence (Q13148 96-185): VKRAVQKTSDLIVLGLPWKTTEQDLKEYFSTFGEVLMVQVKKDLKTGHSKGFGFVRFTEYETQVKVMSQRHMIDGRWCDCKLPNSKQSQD
T3 sequence (Q13148 186-267): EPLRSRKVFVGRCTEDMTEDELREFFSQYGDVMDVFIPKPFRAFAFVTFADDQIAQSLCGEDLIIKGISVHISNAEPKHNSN
T1 sequence (Q13148 96-267): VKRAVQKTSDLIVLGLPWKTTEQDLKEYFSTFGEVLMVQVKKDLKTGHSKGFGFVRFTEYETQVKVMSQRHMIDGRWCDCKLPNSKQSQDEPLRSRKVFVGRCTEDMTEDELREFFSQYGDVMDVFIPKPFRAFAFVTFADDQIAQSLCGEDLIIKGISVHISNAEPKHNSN

With TTTTTTTTTTTTTTTTTTTTTTTTTTTTTT (ssDNA) [T30], the binding result was “binds” in [1], “binds” in [2] and “no binding” in [3].
Consider ACACACAC (ssDNA) [Fl-(AC)4 ssDNA], for which the binding result in data set [4], in data set [5] and in data set [6] was “no binding” each time.
For the molecule TTTTTTTTTTTT (ssDNA) [T12], the binding result in data set [1] is “binds”; in [2], “binds”; in data set [3], “no binding”.
Regarding UGUGUGUG (ssDNA, DNA with T replaced by U) [Fl-(UG)4 ssDNA], the Kd in data set [4] amounted to 150 ± 23 nM; in [5], 61 ± 30 nM. In addition, in data set [6], the binding result is listed as “no binding”.
The matching figures for TGTGTGTG (ssDNA) [Fl-(TG)4 ssDNA]: 77 ± 4.2 nM, 52 ± 12 nM and “no binding”.
For UGUGUGUG (ssRNA) [Fl-(UG)4 RNA], the Kd came out at 3.5 ± 2.3 nM in data set [7] and 28 ± 9 nM in data set [8]. Besides, the binding result in data set [9] is recorded as “no binding”.
